Data taken from US20140193357A1.
Values joined by “and” are separate entries in the source; they are usually repeats but may differ in a detail not shown here. Identical values can stand only once.

Target: T1, G-CSF receptor on the surface of murine myeloid leukemia cell line G-NFS-60 (murine (cell line G-NFS-60)) (UniProt P40223)
T1 sequence (looked up): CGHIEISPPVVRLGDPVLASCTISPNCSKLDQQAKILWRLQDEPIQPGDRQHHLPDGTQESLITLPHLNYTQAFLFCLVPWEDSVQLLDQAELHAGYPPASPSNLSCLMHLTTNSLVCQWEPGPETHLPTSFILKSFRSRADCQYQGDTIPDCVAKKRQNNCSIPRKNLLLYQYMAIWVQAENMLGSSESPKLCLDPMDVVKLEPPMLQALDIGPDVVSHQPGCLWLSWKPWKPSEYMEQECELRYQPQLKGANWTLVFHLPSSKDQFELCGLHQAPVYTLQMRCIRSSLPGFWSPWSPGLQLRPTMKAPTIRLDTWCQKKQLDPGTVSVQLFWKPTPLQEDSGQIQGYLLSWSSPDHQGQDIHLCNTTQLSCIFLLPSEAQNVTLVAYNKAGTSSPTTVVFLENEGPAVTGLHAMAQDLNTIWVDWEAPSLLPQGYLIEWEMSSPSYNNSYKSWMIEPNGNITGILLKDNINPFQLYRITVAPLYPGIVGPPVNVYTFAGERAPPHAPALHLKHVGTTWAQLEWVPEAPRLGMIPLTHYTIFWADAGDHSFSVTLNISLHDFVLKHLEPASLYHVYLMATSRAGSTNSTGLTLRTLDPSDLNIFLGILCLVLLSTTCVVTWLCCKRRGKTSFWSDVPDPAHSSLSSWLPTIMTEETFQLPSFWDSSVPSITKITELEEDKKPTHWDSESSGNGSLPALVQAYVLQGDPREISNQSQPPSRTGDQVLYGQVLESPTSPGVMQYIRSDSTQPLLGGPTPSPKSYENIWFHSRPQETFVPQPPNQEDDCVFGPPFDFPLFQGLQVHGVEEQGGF
Assay: cell-based or functional assay

- Biologic activity (proliferation of G-NFS-60 cells, MTS dye): 1e+08 IU/mg and 6e+07 IU/ml
Substance: Monomer G-CSF (from UniProt P09919 31-204) (ligand)
